One molecule from patent US20190015484A1, “NICOTINE-DEGRADING ENZYMES FOR TREATING NICOTINE ADDICTION AND NICOTINE POISONING” (priority 2015, published 2019) can be followed below.

A short description of data set [1]: NicA2 Michaelis-Menten assay (LC-MS). The class given is biochemical. As for the experimental part:
NicA2 activity was determined by LC-MS using Agilent 1260 Infinity liquid chromatography system with 6130 quadrupole mass spectrometry. 20 μl of each sample was injected to a Poroshell 120 EC-C8 column (4.6×50 mm, 2.7 μm, Agilent Technologies) subjected to a gradient (A to B where A=0.1% formic acid in water and B=0.1% formic acid in acetonitrile) of 0% B for 3 min, 0% B to 100% B from 3 to 7 min, and 100% B from 7 to 10 min at a constant flow rate of 0.5 ml/min. A column-solvent equilibration time of 3 min was conducted prior to next sample analysis. MS operational parameters were: API-ES mode, channel 1 (90%) positive single ion monitoring (SIM) of m/z 179 (30%), 161 (30%), 166 (30%) and 163 (10%), corresponding to the M+ peak of the reaction products, labeled internal standard and substrate respectively and channel 2 (10%) scan for positive ions; nitrogen as a nebulizing and drying gas (35 psi, 12 L/min), HV capillary voltage at 4 kV and the drying gas temperature to 300° C. To protect the detector from salts in the buffer, MS was turned on with a delay 1.4 min after injection.
Nicotine was solubilized in ddH2O to a concentration of 10 mM as stock and diluted with HEPES buffer (50 mM, pH=7.4) in the assay. Then 100 μL nicotine solution was mixed with 100 μL NicA2 solution to obtain final concentrations of 0.0625, 0.125, 0.25, 0.5, 1, 2 […] and 10 nM NicA2. After incubating at room temperature for 20 min, 20 μL nicotine methyl D-3 (2 μM in 20% TFA/H2O) solution was added to the mixture as an internal standard and to quench the reaction as well. The samples were injected into the LC-MS for analysis.
For standard curve generation, 0.03125, 0.0625, 0.125, 0.25, 0.5, 1, 2 μM nicotine and 0.4 μM NicA2 was tested and incubated for 2 h for complete oxidation of nicotine.
For the assay at 37° C., all the operations were undertaken in a warm room (37° C.) and solutions were pre-warmed to 37° C. Subsequently protocols were followed as described, vide supra.
Raw data was obtained with Agilent ChemStation, ions with m/z 179,161 (products), 166 (internal standard), 163 (nicotine) were extracted from MS channel 1 (SIM). The area of each peak was integrated and divided by internal standard (IS).
Data was further analyzed with Prism 6.0. For standard curves, the ratios of products to IS were plotted against concentrations of converted nicotine and fitted with linear regression. For experiment data, the ratios were fitted to the standard curves to obtain converted nicotine concentration, and then divided by reaction time (20 min) to get v0. These v0 were plotted against substrate nicotine concentrations using he Michaelis-Menten model to obtain Km and Vmax.
Upon reaction of nicotine with NicA2, three products were observed by LC-MS, one with m/z 179 (4) and two inseparable nicotine metabolites with m/z 161 (1 and 2, FIG. 2). Due to the limitation of instrument sensitivity and the dynamic equilibration of the products, direct quantification of the enzyme's efficiency was challenging. To compensate for these shortcomings, the product peaks 1, 2 and 4 were integrated in order to back-calculate the amount of nicotine consumed by NicA2. Standard curves were generated wherein nicotine was fully oxidized by NicA2 and the m/z 161/179 signals were plotted against a change in nicotine concentration, to provide a direct linear relationship (FIG. 3). The kinetic parameters of the enzyme were thus accurately determined.
To determine kinetic parameters of the enzyme, curves were generated at varying nicotine concentrations utilizing 10 nM NicA2 at room temperature. Samples were analyzed by LC-MS using nicotine (methyl-D3) as an internal standard. Target m/z values (161, 179 and 166) were extracted, integrated and fit to obtain the velocity, v0.

Data set [2] can be described thus: NicA2 stability assay in HEPES buffer at 37° C. As to conditions: HEPES buffer pH=7.4. As for the experimental part: Four μM nicotine and 40 nM NicA2 were prepared in HEPES buffer and stored at 37° C. Upon sitting for 0, 1, 3, 4, 5, 8, 12, 16, 20, or 25 days, 100 μL of each solution was extracted, mixed, incubated, quenched, analyzed as detailed, vide supra.
To test for these metrics, NicA2 was incubated at 37° C. in HEPES buffer and enzyme activity was examined at different time points.

The nature of data set [3]: NicA2 degradation of nicotine in mouse serum. The class given is biochemical. As to conditions: 125, 250, 500 nM nicotine, 20 nM NicA2, mouse serum, 30 min. As for the experimental part: FIGS. 5A-5D illustrate the stability of the NicA2 enzyme. FIG. 5A graphically illustrates the thermal stability of the NicA2 enzyme as a function of temperature. FIG. 5B illustrates the stability of NicA2 at 37° C. in HEPES buffer (pH=7.4) as a function of time. […] FIG. 5C illustrates the stability of NicA2 in mouse serum at 37° C. over time. FIG. 5D graphically illustrates the ability of NicA2 to degrade nicotine in mouse serum. Concentrations of 125, 250, 500 nM nicotine with and without enzyme (20 nM NicA2) were incubated in serum for 30 min. Residual nicotine remaining after this time period was measured.
As a means to test NicA2's efficiency “in vivo”, nicotine was doped with or without enzyme in serum (FIG. 5D). […] To further substantiate a conclusion that NicA2 can remove nicotine in vivo, NicA2's catabolism of nicotine was simulated based upon foregoing kinetic constants that were determined. NicA2 specificity constant is approximately 10^5 M^−1s^−1 and while clearly far from a perfect enzyme (10^8-10^9 M^−1s^−1).

A short description of data set [4]: In vivo testing of NicA2: blood and brain nicotine levels in rats. More on the design: species or system rat. As for the experimental part: Rats were used for in vivo testing because their nicotine metabolism is generally similar to that of humans with regard to rate and range of metabolites. 30 female, 250 g Sprague Dawley rats were pretreated with varying amounts of NicA2 intravenously as noted in Table B below.
After administration of NicA2 (generally over 5 minutes), nicotine (0.03 mg/kg) was administered intravenously. At 5 minutes, the rats were sacrificed under isoflurane anesthesia and 1 ml blood samples were collected with 0.32 ml heparin. 0.5 ml of each blood sample was added to a tube containing ice cold 2 ml methanol (to quench NicA2 activity) and the contents were rapidly mixed. Another 0.5 ml of each blood sample was added to a tube containing ice cold 2 ml of methanol (to quench NicA2 activity) and deuterium labeled D4-nicotine, and the contents were rapidly mixed. The brains were collected and frozen at −20° C. Measurements were made in accordance with Keyler et al., International Pharmacology 2008, 8, […], and, Hieda et al., Psychopharmacology, 1999, 143(2), 150-157.

Values joined by “and” are separate entries in the source; they are usually repeats but may differ in a detail not shown here. Equal values may be shown once.

B1: NicA2: flavin-containing nicotine-degrading enzyme of Pseudomonas putida S16, amino acid sequence SEQ ID NO:1 (protein)
chain: MSDKTKTNEGFSRRSFIGSAAVVTAGVAGLGAIDAASATQKTNRASTVKGGFDYDVVVVGGGFAGATAARECGLQGYRTLLLEARSRLGGRTFTSRFAGQEIEFGGAWVHWLQPHVWAEMQRYGLGVVEDPLTNLDKTLIMYNDGSVESISPDEFGKNIRIAFEKLCHDAWEVFPRPHEPMFTERARELDKSSVLDRIKTLGLSRLQQAQINSYMALYAGETTDKFGLPGVLKLFACGGWNYDAFMDTETHYRIQGGTIGLINAMLTDSGAEVRMSVPVTAVEQVNGGVKIKTDDDEIITAGVVVMTVPLNTYKHIGFTPALSKGKQRFIKEGQLSKGAKLYVHVKQNLGRVFAFADEQQPLNWVQTHDYSDELGTILSITIARKETIDVNDRDAVTREVQKMFPGVEVLGTAAYDWTADPFSLGAWAAYGVGQLSRLKDLQAAEGRILFAGAETSNGWHANIDGAVESGLRAGREVKQLLS
modifications: His tag
For B1, the specificity constant entry in data set [1] was “approximately 10^5 M^−1s^−1”. The Km in data set [1] (37° C.) is 92 nM and 91.9 nM; in data set [1] (room temperature, m/z 161, 10 nM NicA2), 46.2 ± 6.4 nM; in data set [1] (room temperature, m/z 179, 10 nM NicA2), 43 nM and 43.5 nM. Moreover, the kcat entry in data set [1] (37° C.) is recorded as “(1.32±0.04)×10^−2 s^−1”; in data set [1] (room temperature, m/z 161), “(7.02 ± 0.23) × 10^−3 s^−1”; in data set [1] (room temperature, m/z 179), “(6.64 ± 0.17) × 10^−3 s^−1”. Also, the “stability and activity in HEPES buffer” value in data set [2] was at least 3 weeks. For the same molecule, the “v0 over the duration of the study” value in data set [2] was “remained virtually constant”. Further, in data set [3], the “nicotine consumed in serum” value was “consumed all nicotine”. The molecule further displayed a brain nicotine levels in data set [4] (4 out of the 5 animals, 5 min after 0.03 mg/kg i.v. nicotine) below 2 ng/mL. The “blood and brain levels of nicotine” value in data set [4] (rats, 5 minutes after 0.03 mg/kg i.v. nicotine, n=5) is recorded as “below the limit of quantitation”. Besides, the “reduction in nicotine blood levels” value in data set [4] (rats, highest NicA2 dose (9.72 mg/kg i.v.), 5 min after 0.03 mg/kg i.v. nicotine, compared to controls) is reported as above 95%.

As a reminder, the Km is the concentration of substrate that gives half-maximal velocity.
